Results on 18 molecules are retold here after patent US20210261668A1 (DRAGONFLY THERAPEUTICS, published 2021).

What all share (experiment): ELISA on coated NKG2D-Fc
A general note: An ELISA detects its analyte on a solid surface through an enzyme-linked reagent.

Test [1] has as its target T1, human NKG2D-Fc fusion protein (human, UniProt P26718 73-216).
T1 construct: extracellular domain; also called recombinant human NKG2D-Fc; human recombinant NKG2D; not shown: human IgG1 Fc domain
T1 sequence (looked up): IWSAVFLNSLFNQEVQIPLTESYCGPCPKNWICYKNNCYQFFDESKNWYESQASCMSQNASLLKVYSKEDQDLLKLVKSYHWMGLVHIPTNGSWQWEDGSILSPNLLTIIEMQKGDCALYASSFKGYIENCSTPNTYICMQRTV

The target of test [2] is T2, mouse NKG2D-Fc fusion protein (mouse; human, UniProt O54709 90-232).
T2 construct: extracellular domain; also called mouse recombinant NKG2D-Fc; recombinant mouse NKG2D-Fc; not shown: human IgG1 Fc domain
T2 sequence (looked up): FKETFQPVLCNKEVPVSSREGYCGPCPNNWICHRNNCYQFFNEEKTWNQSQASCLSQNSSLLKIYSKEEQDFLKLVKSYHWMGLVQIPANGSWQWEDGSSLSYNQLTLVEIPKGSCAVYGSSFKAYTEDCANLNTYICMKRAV

Test [3] addresses T3, cynomolgus NKG2D-Fc fusion protein (cynomolgus; human, UniProt P61252 73-216).
T3 construct: extracellular domain; also called cynomolgus recombinant NKG2D-Fc; cynomolgus recombinant NKG2D; not shown: human IgG1 Fc domain
T3 sequence (looked up): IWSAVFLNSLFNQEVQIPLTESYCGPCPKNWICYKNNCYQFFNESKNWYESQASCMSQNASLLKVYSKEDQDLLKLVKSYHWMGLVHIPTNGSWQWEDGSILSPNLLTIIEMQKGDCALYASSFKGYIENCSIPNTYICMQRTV

B1: ADI-27727 (antibody, V domains shown)
VH: QVQLVQSGAEVKKPGSSVKVSCKASGGTFSSYAISWVRQAPGQGLEWMGGIIPIFGTANYAQKFQGRVTITADESTSTAYMELSSLRSEDTAVYYCARGDSSIRHAYYYYGMDVWGQGTTVTVSS
VL: not shown
Take B1: the binding result in test [1], in test [2] and in test [3] was “binds” in each case.

B2: ADI-29443 (antibody, V domains shown)
VH: QLQLQESGPGLVKPSETLSLTCTVSGGSISSSSYYWGWIRQPPGKGLEWIGSIYYSGSTYYNPSLKSRVTISVDTSKNQFSLKLSSVTAADTAVYYCARGSDRFHPYFDYWGQGTLVTVSS
VL: EIVLTQSPATLSLSPGERATLSCRASQSVSRYLAWYQQKPGQAPRLLIYDASNRATGIPARFSGSGSGTDFTLTISSLEPEDFAVYYCQQFDTWPPTFGGGTKVEIK
notes: also called F43
With B2, the binding result in test [1] and in test [2] was “binds” in each case.

B3: ADI-27705 (antibody, V domains shown)
VH: QVQLQQWGAGLLKPSETLSLTCAVYGGSFSGYYWSWIRQPPGKGLEWIGEIDHSGSTNYNPSLKSRVTISVDTSKNQFSLKLSSVTAADTAVYYCARARGPWSFDPWGQGTLVTVSS
VL: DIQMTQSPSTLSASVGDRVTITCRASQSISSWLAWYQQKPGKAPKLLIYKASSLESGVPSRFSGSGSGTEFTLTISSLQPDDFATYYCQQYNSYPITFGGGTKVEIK
With B3, the binding result in test [1], in test [2] and in test [3] was “binds” throughout.

B4: ADI-29403 (antibody, V domains shown)
VH: QVQLQQWGAGLLKPSETLSLTCAVYGGSFSGYYWSWIRQPPGKGLEWIGEIDHSGSTNYNPSLKSRVTISVDTSKNQFSLKLSSVTAADTAVYYCARARGPWSFDPWGQGTLVTVSS
VL: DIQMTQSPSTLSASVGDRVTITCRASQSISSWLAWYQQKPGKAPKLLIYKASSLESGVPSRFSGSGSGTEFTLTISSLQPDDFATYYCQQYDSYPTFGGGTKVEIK
Take B4: the binding result in test [1], in test [2] and in test [3] was “binds” throughout.

B5: ADI-29421 (antibody, V domains shown)
VH: QVQLQQWGAGLLKPSETLSLTCAVYGGSFSGYYWSWIRQPPGKGLEWIGEIDHSGSTNYNPSLKSRVTISVDTSKNQFSLKLSSVTAADTAVYYCARARGPWSFDPWGQGTLVTVSS
VL: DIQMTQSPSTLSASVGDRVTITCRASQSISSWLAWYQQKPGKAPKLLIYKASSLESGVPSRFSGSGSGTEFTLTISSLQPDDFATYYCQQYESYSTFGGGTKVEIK
Consider B5, for which the binding result in test [1], in test [2] and in test [3] was “binds” each time.

B6: ADI-29425 (antibody, V domains shown)
VH: QVQLQQWGAGLLKPSETLSLTCAVYGGSFSGYYWSWIRQPPGKGLEWIGEIDHSGSTNYNPSLKSRVTISVDTSKNQFSLKLSSVTAADTAVYYCARARGPWSFDPWGQGTLVTVSS
VL: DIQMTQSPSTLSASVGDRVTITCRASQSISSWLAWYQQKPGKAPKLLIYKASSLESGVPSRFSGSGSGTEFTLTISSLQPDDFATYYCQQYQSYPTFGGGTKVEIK
As for B6, the binding result in test [1], in test [2] and in test [3] was “binds” in each case.

B7: ADI-29429 (antibody, V domains shown)
VH: QVQLQQWGAGLLKPSETLSLTCAVYGGSFSGYYWSWIRQPPGKGLEWIGEIDHSGSTNYNPSLKSRVTISVDTSKNQFSLKLSSVTAADTAVYYCARARGPWSFDPWGQGTLVTVSS
VL: DIQMTQSPSTLSASVGDRVTITCRASQSIGSWLAWYQQKPGKAPKLLIYKASSLESGVPSRFSGSGSGTEFTLTISSLQPDDFATYYCQQYELYSYTFGGGTKVEIK
In the case of B7, the binding result in test [1], in test [2] and in test [3] was “binds” each time.

B8: ADI-27743 (antibody, V domains shown)
VH: QVQLQQWGAGLLKPSETLSLTCAVYGGSFSGYYWSWIRQPPGKGLEWIGEIDHSGSTNYNPSLKSRVTISVDTSKNQFSLKLSSVTAADTAVYYCARARGPWSFDPWGQGTLVTVSS
VL: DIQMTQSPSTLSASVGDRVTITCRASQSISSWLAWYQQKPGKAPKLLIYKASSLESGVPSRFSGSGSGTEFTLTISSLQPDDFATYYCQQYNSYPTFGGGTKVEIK
B8: the binding result in test [1], in test [2] and in test [3] was “binds” each time.

B9: ADI-27740 (antibody, V domains shown)
VH: QVQLQQWGAGLLKPSETLSLTCAVYGGSFSGYYWSWIRQPPGKGLEWIGEIDHSGSTNYNPSLKSRVTISVDTSKNQFSLKLSSVTAADTAVYYCARARGPWSFDPWGQGTLVTVSS
VL: DIQMTQSPSTLSASVGDRVTITCRASQSIGSWLAWYQQKPGKAPKLLIYKASSLESGVPSRFSGSGSGTEFTLTISSLQPDDFATYYCQQYHSFYTFGGGTKVEIK
notes: also called A40
On to B9, for which the binding result in test [1], in test [2] and in test [3] was “binds” in each case.

B10: ADI-29401 (antibody, V domains shown)
VH: QVQLQQWGAGLLKPSETLSLTCAVYGGSFSGYYWSWIRQPPGKGLEWIGEIDHSGSTNYNPSLKSRVTISVDTSKNQFSLKLSSVTAADTAVYYCARARGPWSFDPWGQGTLVTVSS
VL: DIQMTQSPSTLSASVGDRVTITCRASQSIGSWLAWYQQKPGKAPKLLIYKASSLESGVPSRFSGSGSGTEFTLTISSLQPDDFATYYCQQYDIYPTFGGGTKVEIK
B10: the binding result in test [1], in test [2] and in test [3] was “binds” throughout.

B11: ADI-29424 (antibody, V domains shown)
VH: QVQLQQWGAGLLKPSETLSLTCAVYGGSFSGYYWSWIRQPPGKGLEWIGEIDHSGSTNYNPSLKSRVTISVDTSKNQFSLKLSSVTAADTAVYYCARARGPWSFDPWGQGTLVTVSS
VL: DIQMTQSPSTLSASVGDRVTITCRASQSISSWLAWYQQKPGKAPKLLIYKASSLESGVPSRFSGSGSGTEFTLTISSLQPDDFATYYCQQYDSFITFGGGTKVEIK
For the molecule B11, the binding result in test [1], in test [2] and in test [3] was “binds” throughout.

B12: ADI-29399 (antibody, V domains shown)
VH: QVQLQQWGAGLLKPSETLSLTCAVYGGSFSGYYWSWIRQPPGKGLEWIGEIDHSGSTNYNPSLKSRVTISVDTSKNQFSLKLSSVTAADTAVYYCARARGPWSFDPWGQGTLVTVSS
VL: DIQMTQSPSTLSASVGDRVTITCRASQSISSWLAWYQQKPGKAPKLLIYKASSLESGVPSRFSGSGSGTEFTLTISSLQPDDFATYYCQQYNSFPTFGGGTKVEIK
With B12, the binding result in test [1], in test [2] and in test [3] was “binds” throughout.

B13: ADI-29419 (antibody, V domains shown)
VH: QVQLQQWGAGLLKPSETLSLTCAVYGGSFSGYYWSWIRQPPGKGLEWIGEIDHSGSTNYNPSLKSRVTISVDTSKNQFSLKLSSVTAADTAVYYCARARGPWSFDPWGQGTLVTVSS
VL: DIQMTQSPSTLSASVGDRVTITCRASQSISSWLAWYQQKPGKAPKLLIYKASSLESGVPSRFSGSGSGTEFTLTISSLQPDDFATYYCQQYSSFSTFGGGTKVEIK
B13: the binding result in test [1], in test [2] and in test [3] was “binds” in each case.

B14: ADI-29407 (antibody, V domains shown)
VH: QVQLQQWGAGLLKPSETLSLTCAVYGGSFSGYYWSWIRQPPGKGLEWIGEIDHSGSTNYNPSLKSRVTISVDTSKNQFSLKLSSVTAADTAVYYCARARGPWSFDPWGQGTLVTVSS
VL: DIQMTQSPSTLSASVGDRVTITCRASQSISSWLAWYQQKPGKAPKLLIYKASSLESGVPSRFSGSGSGTEFTLTISSLQPDDFATYYCQQYQSFPTFGGGTKVEIK
Consider B14, for which the binding result in test [1], in test [2] and in test [3] was “binds” each time.

B15: ADI-28226 (antibody, V domains shown)
VH: QVQLQQWGAGLLKPSETLSLTCAVYGGSFSGYYWSWIRQPPGKGLEWIGEIDHSGSTNYNPSLKSRVTISVDTSKNQFSLKLSSVTAADTAVYYCARARGPWSFDPWGQGTLVTVSS
VL: DIQMTQSPSTLSASVGDRVTITCRASQSISSWLAWYQQKPGKAPKLLIYKASSLESGVPSRFSGSGSGTEFTLTISSLQPDDFATYYCQQYGSFPITFGGGTKVEIK
notes: also called C26
B15: the binding result in test [1], in test [2] and in test [3] was “binds” in each case.

B16: ADI-27741 (antibody, V domains shown)
VH: QVQLQQWGAGLLKPSETLSLTCAVYGGSFSGYYWSWIRQPPGKGLEWIGEIDHSGSTNYNPSLKSRVTISVDTSKNQFSLKLSSVTAADTAVYYCARARGPWSFDPWGQGTLVTVSS
VL: DIQMTQSPSTLSASVGDRVTITCRASQSIGSWLAWYQQKPGKAPKLLIYKASSLESGVPSRFSGSGSGTEFTLTISSLQPDDFATYYCQQSNSYYTFGGGTKVEIK
B16: the binding result in test [1], in test [2] and in test [3] was “binds” throughout.

B17: ADI-29405 (antibody, V domains shown)
VH: QVQLQQWGAGLLKPSETLSLTCAVYGGSFSGYYWSWIRQPPGKGLEWIGEIDHSGSTNYNPSLKSRVTISVDTSKNQFSLKLSSVTAADTAVYYCARARGPWSFDPWGQGTLVTVSS
VL: DIQMTQSPSTLSASVGDRVTITCRASQSISSWLAWYQQKPGKAPKLLIYKASSLESGVPSRFSGSGSGTEFTLTISSLQPDDFATYYCQQYGSFPTFGGGTKVEIK
With B17, the binding result in test [1], in test [2] and in test [3] was “binds” throughout.

B18: ADI-29404 (antibody, V domains shown)
VH: QVQLQQWGAGLLKPSETLSLTCAVYGGSFSGYYWSWIRQPPGKGLEWIGEIDHSGSTNYNPSLKSRVTISVDTSKNQFSLKLSSVTAADTAVYYCARARGPWSFDPWGQGTLVTVSS
VL: DIQMTQSPSTLSASVGDRVTITCRASQSISSWLAWYQQKPGKAPKLLIYKASSLESGVPSRFSGSGSGTEFTLTISSLQPDDFATYYCEQYDSYPTFGGGTKVEIK
notes: also called F04
As for B18, the binding result in test [1], in test [2] and in test [3] was “binds” in each case.
